Measurements from the supplement of paper PMC7877785.
± gives the uncertainty stated by the source.

Assay: self-splicing fitness, log relative to wild type (ln ratio); higher = more splicing; Tetrahymena group I intron in knt gene, E. coli kanamycin selection, DiMSum; sequences stand for … in CUCUCU…GGAGGGAAAAGUUAUCAGGCAUGCACCUGGUAGCUAGUCUUUAAACCAAUAGAUUGCAUCGGUUUAAAAGGCAAGACCGUCAAAUUGCGGGAAAGGGGUCAACAGCCGUUCAGUACCAAGUCUCAGGGGAAACUUUGAGAUGGCCUUGCAAAGGGUAUGGUAAUAAGCUGACGGACAUGGUCCUAACCACGCAGCCAAGUCCUAAGUCAACAGAUCUUCUGUUGAUAUGGAUGCAGUUCACAGACUAAAUGUCGGUCGGGGAAGAUGUAUUCUUCUCAUAAGAUAUAGUCGGACCUCUCCUUAAUGGGAGCUAGCGGAUGAAGUGAUGCAACACUGGAGCCGCUGGGAACUAAUUUGUAUGCGAAAGUAUAUUGAUUAGUUUUGGAGUACUCGUGGUCG
How it was run: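 DiMSum derived fitness as the error-weighted combination of fold changes across replicates, kanamycin versus no kanamycin, normalised to wild type. E. coli BL21(DE3) held the library, which randomised all eight P1ex-region intron nucleotides within the knt kanamycin-resistance gene on pET-22b(+). Six replicate transformations grew overnight at 37°C or 30°C on LB agar with or without 25 μg/mL kanamycin, also containing 100 μg/mL carbenicillin, 50 μM IPTG and 0.2% rhamnose, and pooled colonies were amplicon-sequenced on an Illumina HiSeq 2500.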

Sequence | self-splicing fitness (ln) (30 °C) | self-splicing fitness (ln) (37 °C)
ACGAAGCAAUAUUACGUAGA | -3.72 ± 0.24 | -2.89 ± 0.27
ACGAAGCAAUAUUACGUGAC | -3.87 ± 0.26 | -1.12 ± 0.17
ACGAAGCAAUAUUACGUUGG | -3.56 ± 0.16 | -2.38 ± 0.17
ACGCAGCAAUAUUACGAUCA | -1.66 ± 0.099 | -1.26 ± 0.093
ACGCAGCAAUAUUACGAUCU | -0.427 ± 0.063 | 0.356 ± 0.091
ACGCAGCAAUAUUACGAUUA | -1.54 ± 0.091 | -0.902 ± 0.079
ACGCAGCAAUAUUACGCAGC | -3.49 ± 0.18 | -2.16 ± 0.25
ACGCAGCAAUAUUACGCCAC |  | -3.22 ± 0.37
ACGCAGCAAUAUUACGCCCA | -0.672 ± 0.096 | -0.153 ± 0.12
ACGCAGCAAUAUUACGCGAU | -3.38 ± 0.16 | -2.22 ± 0.16
ACGCAGCAAUAUUACGCGGG | -2.94 ± 0.12 | -0.419 ± 0.099
ACGCAGCAAUAUUACGCUAU | -1.25 ± 0.077 | -0.724 ± 0.11
ACGCAGCAAUAUUACGCUUC | -2.75 ± 0.26 | -2.48 ± 0.22
ACGCAGCAAUAUUACGGAAC | -3.67 ± 0.2 | -1.78 ± 0.17
ACGCAGCAAUAUUACGGAAU | -2.27 ± 0.1 | -2.07 ± 0.14
ACGCAGCAAUAUUACGGCGC | -3.39 ± 0.14 | -1.63 ± 0.11
ACGCAGCAAUAUUACGGCGG | -2.14 ± 0.074 | -1.91 ± 0.14
ACGCAGCAAUAUUACGGGCG | -1.5 ± 0.063 | -1.3 ± 0.072
ACGCAGCAAUAUUACGGGUA | -2.46 ± 0.11 | -1.37 ± 0.087
ACGCAGCAAUAUUACGGUGC | -2.18 ± 0.15 | 
ACGCAGCAAUAUUACGGUGG | -2.52 ± 0.11 | -1.17 ± 0.11
ACGCAGCAAUAUUACGGUUG | -3.89 ± 0.2 | -1.85 ± 0.14
ACGCAGCAAUAUUACGUAAC | -3.99 ± 0.22 | -2.37 ± 0.23
ACGCAGCAAUAUUACGUAAG | -0.0743 ± 0.099 | -1.27 ± 0.13

Sequence | self-splicing fitness (ln) (30 °C) | self-splicing fitness (ln) (37 °C)
ACGCAGCAAUAUUACGUCGU | -3.77 ± 0.26 | -1.6 ± 0.21
ACGCAGCAAUAUUACGUGGU | -4.06 ± 0.12 | -2.58 ± 0.091
ACGCAGCAAUAUUACGUUGA | -1.43 ± 0.11 | -1.73 ± 0.11
ACGCAGCAAUAUUACGUUUC | -3.87 ± 0.2 | -2.61 ± 0.25
ACGGAGCAAUAUUACGACGG | -1.46 ± 0.1 | 0.14 ± 0.12
ACGGAGCAAUAUUACGAUAG | -3.57 ± 0.29 | -3.09 ± 0.34
ACGGAGCAAUAUUACGAUGG | -3.63 ± 0.32 | -0.86 ± 0.27
ACGGAGCAAUAUUACGCCAA | -3.46 ± 0.33 | -3.34 ± 0.47
ACGGAGCAAUAUUACGCGCU | -3.23 ± 0.3 | -1.17 ± 0.21
ACGGAGCAAUAUUACGCGGU | -2.86 ± 0.25 | -1.03 ± 0.31
ACGGAGCAAUAUUACGCGUC |  | -1.92 ± 0.33
ACGGAGCAAUAUUACGCUAC | -3.07 ± 0.33 | -2.06 ± 0.39
ACGGAGCAAUAUUACGGACG | -1.96 ± 0.19 | -1.17 ± 0.22
ACGGAGCAAUAUUACGGCUG | -2.87 ± 0.12 | -1.26 ± 0.13
ACGGAGCAAUAUUACGGGUA | -2.34 ± 0.25 | -3.02 ± 0.32
ACGGAGCAAUAUUACGGUUA | -2.6 ± 0.23 | -2.2 ± 0.15
ACGGAGCAAUAUUACGUAAG | -3.18 ± 0.2 | -1.82 ± 0.24
ACGGAGCAAUAUUACGUCAC | -3.48 ± 0.31 | -2.42 ± 0.45
ACGGAGCAAUAUUACGUCGC | -2.93 ± 0.24 | -1.42 ± 0.18
ACGGAGCAAUAUUACGUCGG | -3.04 ± 0.31 | -0.422 ± 0.23
ACGGAGCAAUAUUACGUUCC | -3.92 ± 0.47 | -2.01 ± 0.37
ACGUAGCAAUAUUACGAACA | -1.56 ± 0.24 | -0.252 ± 0.2
ACGUAGCAAUAUUACGACUC | -0.301 ± 0.26 | -0.584 ± 0.27
ACGUAGCAAUAUUACGACUU | -0.145 ± 0.099 | 0.593 ± 0.13

Sequence | self-splicing fitness (ln) (30 °C) | self-splicing fitness (ln) (37 °C)
ACGUAGCAAUAUUACGAUAA | -1.52 ± 0.13 | -1.51 ± 0.18
ACGUAGCAAUAUUACGAUAG | -3.45 ± 0.24 | -2.53 ± 0.23
ACGUAGCAAUAUUACGAUCC | -1.03 ± 0.17 | -0.00168 ± 0.18
ACGUAGCAAUAUUACGCACC | -1.18 ± 0.11 | -0.224 ± 0.16
ACGUAGCAAUAUUACGCAGU | -2.58 ± 0.2 | -2.54 ± 0.24
ACGUAGCAAUAUUACGGAAA | -2.27 ± 0.4 | -1.94 ± 0.33
ACGUAGCAAUAUUACGGACC | -1.21 ± 0.16 | -0.314 ± 0.2
ACGUAGCAAUAUUACGGCUC | -1.2 ± 0.12 | -0.844 ± 0.15
ACGUAGCAAUAUUACGGUGC | -3.86 ± 0.4 | -2.01 ± 0.22
ACGUAGCAAUAUUACGUAGC | -3.34 ± 0.27 | -2.62 ± 0.35
ACGUAGCAAUAUUACGUCCA | -1.02 ± 0.14 | -1.13 ± 0.15
ACGUAGCAAUAUUACGUCUU | -3.76 ± 0.16 | -1.92 ± 0.15
ACGUAGCAAUAUUACGUGCG | -2.19 ± 0.1 | -1.17 ± 0.11
ACGUAGCAAUAUUACGUGGU | -4.03 ± 0.18 | -1.13 ± 0.094
ACGUAGCAAUAUUACGUUGU | -3.07 ± 0.11 | -2.01 ± 0.14
ACUAAGCAAUAUUACGAAGU | -3.81 ± 0.38 | -2.1 ± 0.35
ACUAAGCAAUAUUACGAAUG | -2.31 ± 0.13 | -1.2 ± 0.14
ACUAAGCAAUAUUACGACCU | -0.123 ± 0.081 | 0.342 ± 0.1
ACUAAGCAAUAUUACGACGU | -0.322 ± 0.066 | 0.158 ± 0.082
ACUAAGCAAUAUUACGAGGA | -2.34 ± 0.23 | -2.13 ± 0.2
ACUAAGCAAUAUUACGAGUU | -3.56 ± 0.15 | -3.42 ± 0.25
ACUAAGCAAUAUUACGAUAG | -1.34 ± 0.076 | -0.427 ± 0.096
ACUAAGCAAUAUUACGCAUA | -1.9 ± 0.14 | -2.14 ± 0.14
ACUAAGCAAUAUUACGCCUG | -1.78 ± 0.14 | -0.595 ± 0.15

Sequence | self-splicing fitness (ln) (30 °C) | self-splicing fitness (ln) (37 °C)
ACUAAGCAAUAUUACGCGAA | -1.57 ± 0.13 | -1.22 ± 0.17
ACUAAGCAAUAUUACGCGAC | -2.71 ± 0.19 | -2.78 ± 0.21
ACUAAGCAAUAUUACGCGUG | -1.58 ± 0.098 | -0.684 ± 0.095
ACUAAGCAAUAUUACGCGUU | -3.36 ± 0.13 | -1.58 ± 0.11
ACUAAGCAAUAUUACGGAGG | -2.52 ± 0.11 | -1.16 ± 0.13
ACUAAGCAAUAUUACGGCAC | -0.673 ± 0.096 | -1.92 ± 0.095
ACUAAGCAAUAUUACGGCCU | -0.171 ± 0.073 | -0.475 ± 0.087
ACUAAGCAAUAUUACGGCUG | -0.108 ± 0.076 | 0.16 ± 0.097
ACUAAGCAAUAUUACGGGGA | -1.84 ± 0.12 | -1.55 ± 0.13
ACUAAGCAAUAUUACGGUAC | -2.7 ± 0.27 | -1.89 ± 0.19
ACUAAGCAAUAUUACGGUCA | -1.57 ± 0.077 | -1.35 ± 0.094
ACUAAGCAAUAUUACGGUCU | -1.45 ± 0.072 | -0.907 ± 0.082
ACUAAGCAAUAUUACGGUGC | -2.36 ± 0.11 | -2.02 ± 0.15
ACUAAGCAAUAUUACGGUUU | -2.05 ± 0.091 | -0.745 ± 0.096
ACUAAGCAAUAUUACGUAUG | -3.55 ± 0.16 | -1.25 ± 0.14
ACUAAGCAAUAUUACGUCAA | -3.07 ± 0.17 | -1.35 ± 0.14
ACUAAGCAAUAUUACGUCGA | -1.04 ± 0.13 | -1.45 ± 0.12
ACUAAGCAAUAUUACGUGAC | -3.82 ± 0.21 | -1.28 ± 0.14
ACUAAGCAAUAUUACGUGAU | -1.65 ± 0.062 | -1.21 ± 0.077
ACUAAGCAAUAUUACGUGCU | -1.62 ± 0.073 | -1.06 ± 0.099
ACUAAGCAAUAUUACGUGGU | -3.41 ± 0.15 | -2.73 ± 0.21
ACUAAGCAAUAUUACGUGUC | -3.48 ± 0.14 | -3.57 ± 0.21
ACUCAGCAAUAUUACGAACG | -0.623 ± 0.1 | -0.492 ± 0.14
ACUCAGCAAUAUUACGACCG | -0.553 ± 0.16 | -1 ± 0.15
